# Reference: paper PMC11903679
# How the values were obtained:
# [1] = target: HLA-A*02:01/hβ2m (human)
# [2] = target: HLA-B*08:01/hβ2m (human)
# [3] = target: HLA-A*02:01/hβ2m (human); test: in vitro refolding + SEC
# [4] = target: HLA-B*08:01/hβ2m (human); test: in vitro refolding + SEC
# [5] = target: HLA-E*01:03/hβ2m (human)
# [6] = target: HLA-E*01:03/hβ2m (human); remark: listed apart in the source
# [7] = target: HLA-E*01:03/hβ2m (human); test: in vitro refolding + SEC
Substance,nanoDSF melting temperature (Tm) of the refolded peptide/HLA/hβ2m complex [1] [°C],nanoDSF melting temperature (Tm) of the refolded peptide/HLA/hβ2m complex [2] [°C],apparent refolding yield (%) [3] [%],apparent refolding yield (%) [4] [%],nanoDSF melting temperature (Tm) of the refolded peptide/HLA/hβ2m complex [5] [°C],nanoDSF melting temperature of a minor population of the refolded complex [6] [°C],apparent refolding yield (%) [7] [%]
LSA3 78–87 (…) (peptide),52.5,56.3,13.5,14.7,–,–,–
MSP1 880–889 (…) (peptide),53.6,51.6,–,63.3,–,–,–
MSP1 511–520 (…) (peptide),51.6,–,19,44.4,–,–,–
MSP1 643–652 (…) (peptide),–,52.9,–,32.6,38.4,63,8
LSA3 1229–1238 (…) (peptide),58.4,60.5,24.6,47.6,61,–,38.1
SSFP 93–102 (…) (peptide),52.5,56.3,27.1,51.1,–,–,–
MSP1 823–832 (…) (peptide),63.2,52.6,–,12.5,–,–,–
